For the assay, the target named is T1, HIV-1 envelope glycoprotein Env_(JR-CSF) on intact virions (HIV-1 group M subtype B, isolate JR-CSF, UniProt P20871).
T1 construct: also called JR-CSF Env-WT; JR-CSF virions; source: 293T cells transfected with the Env(-) pCHIV plasmid and the full-length JR-CSF Env clone; on pseudovirions purified by ultracentrifugation through a 20% sucrose cushion
In words: STED microscopy of fluorescent Fab on single virions. As to conditions: one partner purified.

B1: Fab 10E8 3R conjugated with KK114 (Fab, V domains shown)
VH: EVQLVESGGGLVKPGGSLRLSCSASGFDFDNAWMTWVRQPPGKGLEWVGRITGPGEGWSVDYAAPVEGRFTISRLNSINFLYLEMNNLRMEDSGLYFCARTGKYYDFWSGYPPGEEYFQDWGRGTLVTVSS
VL: SYELTQETGVSVALGRTVTITCRGDSLRRHYASWYQKKPGQAPILLFYGKRNRPSGVPDRFSGSARGNRASLTISGAQAEDDAEYYCSSRDKSGSRLSVFGGGTKLTVL
notes: also called 3R mutant
With B1, the binding result is “binds”.

B2: Fab 10E8 3R-WG conjugated with KK114 (Fab, V domains shown)
VH: EVQLVESGGGLVKPGGSLRLSCSASGFDFDNAWMTWVRQPPGKGLEWVGRITGPGEGWSVDYAAPVEGRFTISRLNSINFLYLEMNNLRMEDSGLYFCARTGKYYDFGSGYPPGEEYFQDWGRGTLVTVSS
VL: SYELTQETGVSVALGRTVTITCRGDSLRRHYASWYQKKPGQAPILLFYGKRNRPSGVPDRFSGSARGNRASLTISGAQAEDDAEYYCSSRDKSGSRLSVFGGGTKLTVL
notes: also called 3R/WG mutant
On to B2, for which the binding result is reported as “binds”.

Source of the values: publication PMC6325134 (Nature Communications, 2019).
